Data as given in the nanobody polyreactivity screen of Harvey et al. (2022).

test: yeast display, Sf9 membrane polyspecificity reagent, FACS + sequencing; frameworks hold sequencing errors
Procedure, shortened: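 Galactose induction of a Saccharomyces cerevisiae BJ5465 synthetic nanobody display library ran 36–48 hours. The cells were then stained for 1 hour at 4 °C with 10% biotinylated, detergent-solubilized Sf9 membrane reagent, pulled down on streptavidin microbeads and FACS-sorted into low and high (top ~1%) gates on expression and reagent-binding fluorescence. Labels for polyreactivity follow the gate of origin.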

| Sequence | polyreactivity (PSR sort gate) |
| --- | --- |
| QGQLVESGGGLVQAGGSLRLSCAASGYIFDWYAMGWYRQAPGKEREFVAAISGSDGSTYYADSVKGRFTISRDNAKNTVYLQMNSLKPEDSAVYYCAADPYYGEMEYWGQGTQVTVSS | low polyreactivity |
| QGQLVESGGGLVQAGGSLRLSCAASGYIFLTNAMGWSREAPGKERVLVAAISWRGGRTYYADSVKGRFTISRDNAKNTVYLQMNSLKPEDTAVYYCNAVCEYYGKSDYWGQGTQVTVSS | low polyreactivity |
| QGQLVESGGGLVQAGGSLRLSCAASGYTFYANAMGWYRQAPGNEREFVASITWSGGSTYYADSVKGRFTLSRDNAKNTVYLQMNSLKPEDTAVSDCAAESWFKYDYWGQGTQVTVSS | low polyreactivity |
| QGQLVESGGGLVQAGGSLRLSCDASGRIFRKYDMGWYRQAPGKERELVAAISGTGITYYADSVKGRFTISRDNANNTVYLQMNSLKPEDTAVYYCARGSKPRALSWADPSATSIYDYWGQGTQVTVSS | low polyreactivity |
| QGQLVESGGGLVQAGGSLRLSCPASGRIFNTYAMGWYRQAPGKERELVAAINWSGGRTYYADSVKGRFTISRDNAKNTVYLQMNSLKPEDSAVYYCKARGRRRVPEFDYWGQGSQVTVSS | high polyreactivity |
| QGQLVESGGGLVQAGGSLRLSCPASGRIYVFYAMGRYRQATGKEREFVATISYSGDTTYYADSVKGRFTISRDNAKNTVYLQMNSLKPEDTAVYYCAADLVPSYYYVPMGYDSWGQGTQVTVSS | low polyreactivity |
| QGQLVESGGGLVQAGGSLRLSGAASGRTFRCNAMGWYRQAPGKERELVAAITSSGGRTYYADSVNGRFTISRDNAKNTVYLQMNSLKPEDTAVYYCAADAYQRGSGRYYEYDYWGQGTQVTVSS | high polyreactivity |
| QGQLVESGGGLVQAGGSLRLSSAASGNTFYGYAMGWYRQSPGKERELVASITLSGDSTYYADSVKGRFTISRDNAKNTVYLQMNSLKPEDTAVYYWAGVYTYPLGYYHYTYDYWGQGTQVTVSS | low polyreactivity |
| QGQLVESGGGLVQAGGSLSLSCAASGSIFPVYAMGWYRQAPGTEREFVARIRFSGGRTYYADSVQGRFTISRDNAKNTVYLQMNSLKPEDTAVYYCAKAQYRGRYGYWGQGTQVTVSS | high polyreactivity |
| QGQLVESGGGLVQAGGSLSLSCAASRFTFQRYAMGWDRQAPGKERELVAAISVSGGRTYYADSVKGRFTISRDNAKNSVYLQMNSLKPEDTAVYYCAAEGFLGWYYYWGQGNQVTVSS | high polyreactivity |
| QGQLVESGGGLVQAGGSRRLSCAASGRIFFYYAMGGYRQGPGQARELVAAISQSGASTYYADSVKGRFTISRDTAKNTVYLQMNSLKPEDTAVYYCNHKPYWYRDYYYWGQGTQVTVSS | high polyreactivity |
| QGQLVESGPVLVQAGCSLRLSSAASGYTFGWYAMGWYRQAPGKLRELVAGISSAGSTNYADSVNGRFTISRDNANINVYLQMNSLKPEDTAVYYCAAEVRYWFLADDYWGQGTQVTVSS | high polyreactivity |
| QGQLVESVGGLVQAGVSLRLSCAASGRIFPSYAMGCYRPAPGKERELVAAISSSGGRTYYADSVKGRFTISRDNAKNTVYLQMNSLKPEDTAVYYCAARWVHYGVRYDYWGPGTQVTVSS | high polyreactivity |
| QGQRVESGGGLVQAGCSLRLSSAASGSTFNEYTLGWYRQAPGKERELVAAIRASDGSTFYADTVKGRFTISRDYAKNSVYFQMNSLKPEDTSVYYCPADYYWNDYWGQGTQVTVSS | low polyreactivity |
| QGQVVESGGGLVQAGGSLRLSCAASGSTFYGYAMGWYREAAGKERELVAAISRDGSTNYADSVKGRFTISRDNAKNTVYLQMNSLKPEDTAVYYCATRTKKRAPYKFYSWGQGTQVTVSS | high polyreactivity |
| QHQLVESGGGLVQAGGSLRLSCAASGRTSLDYAMGWYRQAPGKERELVSAIRSGGITNYADSVKGRFTISRDNAKNTVYLQLNSLKPEDTAVYYCAARVHRAYSTGSIVYYWGQGTQVNVSS | high polyreactivity |
| QIKLEESGGGLVQAGGSLRISCAASGSTYWDKVMGWYRQAPGKEMELVAAIDSGGSTYYADSVKGRFTISRDNAKNTVYLLMNSLKPEDTEVYYCNSRVDTPSPYDYWGQGTQVTVSS | low polyreactivity |
| QIQLEESGGGLVQAGGSLRLSCAASGSIFSVYAMGWYRQAPGKERELVATISTGGSTYYADSVKGRFTISRDNAKNTVYLQMNSLKPEDTAVYYCNAQFTPRYWGGYDSWGQGTQVTVSS | low polyreactivity |
| QIQLEESVGGLVQAGGTLRLSCASSGFTFYINVMGWDRQAPGKERELVAAISGTGGTNYADSVKGRFTISRDNAKNTVYLQMNSLKPEDTAVYYCARDYYVYSTGHVPLDYWGQGTQVTVSS | low polyreactivity |
| QIQLVESGGGLVQAGGSLRLSCAASGGIFYINAMGWYRQAPGKERELVAAITESSDITYYADSVKGRFTISRDNAKNSVYLQINSLKPEDTAVYYCAAEFVRSGDDYWGQGTQVTVSS | low polyreactivity |
| QIQLVESGGWLVQAGGSLRLRCAASGNTIHWNVMVWYRQPPGKERELVATITFSGSSTYYADSVKGRFTISRDNAKNTVYLQMNSLQPEDTAVYFCNATRYRLRPSGVRYKYNYWGQGTQGTVSS | low polyreactivity |

| Sequence | polyreactivity (PSR sort gate) |
| --- | --- |
| QLHLQESGGLVQAGGLRLSCAASGSVSYQEAMGWYRQAPGKERELVATISFGANTNYADSVKGRFTISRDNAKNTVYLQMNSLKPEDTAVYYCAAESLFDDYYGYWGQGTQVTVSS | low polyreactivity |
| QLHLQVSGGGLVQAGGSLRLSCAASGSIFLTSEKGWYRQAPGKERELVAAIATGTSTNYADSVKGRFTISRDNAKNTVYLQLNSLKPEDTAVYYCATYDYWGQGTKVTVSS | low polyreactivity |
| QLKLVESGGGLVQAGGSLRLSCAASGSIFDVNAMGWYREAPGKEMELVAAISDSGGSTYYADSVKGRFTISRDNAKNTVYLQMNSLKPEDTAVYYCNADWSWYHYYDCDYWGQGTQVTVSS | low polyreactivity |
| QLQHVESGGGLVQAGGSLRLSCAASGGIFGIYAMGWYRQAPGKESELVAAISRRGGSTYFADSVKGRFTISRDNAKNTVYLQMKSLKPADTAVYYCAAVRRGVNTSFGYRPLNYWGQGTEVTVSS | high polyreactivity |
| QLQHVESGGGLVQAGGSLRLSCAASGSTFYRNAMGWYRQAPGKDRELVAAISRGSRTYYADSVKGRFTISRDNAKNTVYLQMNSLKPEDTAVYYCAALYGSRSTYHMDDYWGQGTQVTVSS | high polyreactivity |
| QLQHVETGGGLVQAGGSLRLSCAASGRIFIRNHMGWYRQAPGKERELVAVITRSGGRTYYADSVKGRFTISRDNANNTVYLQMNRVKPEDTAVYYCAKRQAFKQATYDYWGQGTQVTVSS | low polyreactivity |
| QLQLEESGGGLVQAGGSLRLSCAASRRIIVGYAKGRYRQAPGKEREFVAAITFRGGTTYYADSVKGRLTISRDNAKNTVYLQMNSLNQEDSAVYYCAVPHYLYSVEFGYWGQGTQVTVSS | low polyreactivity |
| QLQLGESGGGLVQAGGSLRLSCAGSGSIFNYYAMGWYRQATGKERELVAAITSGGSTYYADSVKGRFTISRDNAKNTVYLQMNSLKPEDTAVYYCNKAFPYIYEYWGQGTQVTVSS | low polyreactivity |
| QLQLQEGGGGLLQAGGSLRLSCAASGYISYGDVMGWYRQAPGEERELVASIGLDATTNYADSVKGRFTISRDNSKNTVYLQMNSLKPEDTAVYYCPADRGAPFSLHYWGQGTQVTVSS | high polyreactivity |
| QLQLQESSGGLVQAGGSMRMTCAASGTIFHFHIMGWYRPAPGKEREFVAAISYGTSTYYADSVKGRFTISRDNAKNTVYLQMNSQKPEDTAVYYCAVYDYLEVYCWYWGQGTQVTVSS | low polyreactivity |
| QLQLVDSGGGLVQAGGRLSLSCAASGSIFYRYAMGWYIQAPGKERELVAAITSGGRTYYADSVKGRFTISRDNAKNTVYLQMNSLNPEDTAVYFCNAVYRKTSYGYWGQGTQVTVSS | high polyreactivity |
| QLQLVDSGGGLVQAGGSLRLSCAASGRTFRIYAMGWYRKAPGKERELVASITGGGTTNYADSVKGRFTISRDNAKYTVYLQMNSLKPEDTAVYYCAARSRTRPNVPGYGYWGQGTQVTVSS | high polyreactivity |
| QLQLVESCGGLFQAGGSLRLSCADSGSTFGDHAMGCYRQAPGKERELVAVITSDTSTYYADSLKWRLTISRDNAKNTVYLQMNSMKPEDTAVYYCAADWGGLWFWYEYWGQGTQVTVSS | low polyreactivity |
| QLQLVESCGVLVQAGGSLRLSCAASGRTHGNNAMGCYRQAPGKERELVAITYRGGSTYYADSVKGRFTISRDNAKNTVYLQMNSLKPEDTAVYYCNVDIISKVDTNKYEYWGQGTQVTVSS | low polyreactivity |
| QLQLVESGGGLGQAGGRLRLSCAASGSTFGRYAKGCYIQAPGKERELVAAITSDTGNTNFADSVKGRLTISRDNAKNTVYLQMNSLKPEDTAVYYCAAATFWVLWGDVIGNYDSWGQGTQVTVSS | low polyreactivity |
| QLQLVESGGGLVQAGGRLRLSCAASGLNFYDNMGWYRQPPGKEREFVAAISSSGGSTSYADSVKGRFTISRDNAKNTVYLQMNSLKPEDRAVYYCAADSYPAYLGFVGFDYWGQGTQVTVSS | low polyreactivity |
| QLQLVESGGGLVQAGGRLRLSCAASGRTLGKYAMGWYRQAPGKEREFVAAISSSGSRTFYADSVKGRFTISRDNAKYTVSLQMNSLKPEDTAVYYCAADYYSRGYGYWGQGTQVTVSS | high polyreactivity |
| QLQLVESGGGLVQAGGSLPLTCAASGRTFARNAMGWYRQAPGKERELVARISRRAGSTYYADSVKGRFTISRDNAKNTVYLQMNSLKPAETAVYYCNAGPPYSYARDYWGQGTQVTVSS | high polyreactivity |
| QLQLVESGGGLVQAGGSLRLSCAANGSTFWIYAMGWYRQAPGKERELVAAITLRSGSTYYADSVKGRFTMSRDNAKNTVYLQMNSLKPEDTAVYYCATDSWGVDRPNYNYWGQGTQVTVSS | low polyreactivity |
| QLQLVESGGGLVQAGGSLRLSCAASGFIFSTYAMGWYRQAPGKERELVAAISRSGGSTYYADSVKGRFTISRDNAKNTVYLQMNSLKPEDTAVYYCNLSQAAFRTGYDYWGQGTQVTVSS | high polyreactivity |
